The results in this text go back to the supplement of paper PMC11246515.

± gives the standard deviation of the averaged measurements. Where only a bound is given, the exact number is not on record here.

The nature of the data set: total protein half-life in vivo (active degradation + dilution); higher = more stable protein.
The mark [1] stands for this setting: E. coli NCM3722 delta-clpP, growth: N-lim chemostat, doubling time 6 h.
The mark [2] stands for this setting: E. coli NCM3722 delta-hslV, growth: N-lim chemostat, doubling time 6 h.
Setting [3] is: E. coli NCM3722 delta-lon, growth: N-lim chemostat, doubling time 6 h.
Setting [4] is: E. coli NCM3722 delta-smpB, growth: N-lim chemostat, doubling time 6 h.
The mark [5] stands for this setting: wild type E. coli NCM3722, growth: C-lim chemostat, doubling time 3 h.
Where [6] appears, read: wild type E. coli NCM3722, growth: C-lim chemostat, doubling time 6 h.
The mark [7] stands for this setting: wild type E. coli NCM3722, growth: C-lim chemostat, doubling time 12 h.
Setting [8] is: wild type E. coli NCM3722, growth: N-lim chemostat, doubling time 6 h.
Where [9] appears, read: wild type E. coli NCM3722, growth: P-lim chemostat, doubling time 6 h.
Setting [10] is: wild type E. coli NCM3722, growth: P-lim chemostat, doubling time 12 h.
[11] abbreviates: E. coli NCM3722 delta-clpP delta-lon delta-hslV, growth: N-lim chemostat, doubling time 6 h.
[12] abbreviates: wild type E. coli NCM3722, growth: N-lim chemostat, doubling time 12 h.

Turning to “MYTRNLLWLVSLVSAAPLYAADVPANTPLAPQQVFRYNNHSDPGTLDPQKVEENTAAQIVLDLFEGLVWMDGEGQVQPAQAERWEILDGGKRYIFHLRSGLQWSDGQPLTAEDFVLGWQRAVDPKTASPFAGYLAQAHINNAAAIVAGKADVTSLGVKATDDRTLEVTLEQPVPWFTTMLAWPTLFPVPHHVIAKHGDSWSKPENMVYNGAFVLDQWVVNEKITARKNPKYRDAQHTVLQQVEYLALDNSVTGYNRYRAGEVDLTWVPAQQIPAIEKSLPGELRIIPRLNSEYYNFNLEKPPFNDVRVRRALYLTVDRQLIAQKVLGLRTPATTLTPPEVKGFSATTFDELQKPMSERVAMAKALLKQAGYDASHPLRFELFYNKYDLHEKTAIALSSEWKKWLGAQVTLRTMEWKTYLDARRAGDFMLSRQSWDATYNDASSFLNTLKSDSEENVGHWKNAQYDALLNQATQITDATKRNALYQQAEVIINQQAPLIPIYYQPLIKLLKPYVGGFPLHNPQDYVYSKELYIKAH”, the “total protein half-life in vivo” value was determined as 5.575 ± 0.035 h under setting [1]; 6.61 ± 1.4 h under setting [2]; 6.72 ± 0.075 h under setting [3]; 5.64 ± 0.24 h under setting [4]; 2.9 ± 0.11 h under setting [5]; 5.96 ± 0.64 h under setting [6]. Further, the “total protein half-life in vivo” value is 11 ± 0.65 h under setting [7], 5.531 ± 0.0077 h under setting [8], 5.83 ± 0.61 h under setting [9] and 11.7 ± 0.71 h under setting [10].

Take “MKIFSVRQTVLPALLVLSPVVFAADEQTMIVSAAPQVVSELDTPAAVSVVDGEEMRLATPRINLSESLTGVPGLQVQNRQNYAQDLQLSIRGFGSRSTYGIRGIRLYVDGIPATMPDGQGQTSNIDLSSVQNVEVLRGPFSALYGNASGGVMNVTTQTGQQPPTIEASSYYGSFGSWRYGLKATGATGDGTQPGDVDYTVSTTRFTTHGYRDHSGAQKNLANAKLGVRIDEASKLSLIFNSVDIKADDPGGLTKAEWKANPQQAPRAEQYDTRKTIKQTQAGLRYERSLSSRDDMSVMMYAGERETTQYQSIPMAPQLNPSHAGGVITLQRHYQGIDSRWTHRGELGVPVTFTTGLNYENMSENRKGYNNFRLNSGMPEYGQKGELRRDERNLMWNIDPYLQTQWQLSEKLSLDAGVRYSSVWFDSNDHYVTPGNGDDSGDASYHKWLPAGSLKYAMTDAWNIYLAAGRGFETPTINELSYRADGQSGMNLGLKPSTNDTIEIGSKTRIGDGLLSLALFQTDTDDEIVVDSSSGGRTTYKNAGKTRRQGAELAWDQRFAGDFRVNASWTWLDATYRSNVCNEQDCNGNRMPGIARNMGFASIGYVPEDGWYAGTEARYMGDIMADDENTAKAPSYTLVGLFTGYKYNYHNLTVDLFGRVDNLFDKEYVGSVIVNESNGRYYEPSPGRNYGVGMNIAWRFE”: the “total protein half-life in vivo” value under setting [11] was found to be 5.463 ± 0.043 h; the “total protein half-life in vivo” value under setting [1] was determined as 6.48 ± 0.072 h; the “total protein half-life in vivo” value under setting [4] came out at 5.98 ± 0.44 h; the “total protein half-life in vivo” value under setting [6] was found to be 6.21 ± 0.33 h; the “total protein half-life in vivo” value under setting [7] worked out at 13.6 ± 1 h; the “total protein half-life in vivo” value under setting [8] came out at 6.02 ± 0.5 h. Besides, the “total protein half-life in vivo” value runs as follows: under setting [12], 12.9 ± 0.56 h; under setting [9], 5.34 ± 0.089 h; under setting [10], more than 16 h.

“MLDANKLQQAVDQAYTQFHSLNGGQNADYIPFLANVPGQLAAVAIVTCDGNVYSAGDSDYRFALESISKVCTLALALEDVGPQAVQDKIGADPTGLPFNSVIALELHGGKPLSPLVNAGAIATTSLINAENVEQRWQRILHIQQQLAGEQVALSDEVNQSEQTTNFHNRAIAWLLYSAGYLYCDAMEACDVYTRQCSTLLNTIELATLGATLAAGGVNPLTHKRVLQADNVPYILAEMMMEGLYGRSGDWAYRVGLPGKSGVGGGILAVVPGVMGIAAFSPPLDEDGNSVRGQKMVASVAKQLGYNVFKG”: the “total protein half-life in vivo” value was 5.46 ± 0.86 h under setting [11]; 5.64 ± 1.6 h under setting [1]; 4.65 ± 0.16 h under setting [2]; 4.81 ± 0.26 h under setting [3]; 4.57 ± 0.085 h under setting [4]; more than 8 h under setting [6]. For the same sequence, the “total protein half-life in vivo” value worked out at 10.1 h under setting [7]; 4.75 ± 0.39 h under setting [8]; 7.14 ± 2.3 h under setting [12]; 6.4 ± 0.21 h under setting [9]; 12.4 ± 0.65 h under setting [10].

Regarding “MATRIEFHKHGGPEVLQAVEFTPADPAENEIQVENKAIGINFIDTYIRSGLYPPPSLPSGLGTEAAGIVSKVGSGVKHIKAGDRVVYAQSALGAYSSVHNIIADKAAILPAAISFEQAAASFLKGLTVYYLLRKTYEIKPDEQFLFHAAAGGVGLIACQWAKALGAKLIGTVGTAQKAQSALKAGAWQVINYREEDLVERLKEITGGKKVRVVYDSVGRDTWERSLDCLQRRGLMVSFGNSSGAVTGVNLGILNQKGSLYVTRPSLQGYITTREELTEASNELFSLIASGVIKVDVAEQQKYPLKDAQRAHEILESRATQGSSLLIP”, the “total protein half-life in vivo” value runs as follows: under setting [11], 6.37 ± 0.98 h; under setting [1], 5.12 ± 0.23 h; under setting [2], 5.73 ± 0.15 h; under setting [3], 5.78 ± 0.78 h; under setting [4], 5.28 ± 0.14 h; under setting [5], 3.13 ± 0.2 h. Moreover, the “total protein half-life in vivo” value is, setting by setting: under setting [6], 5.98 ± 0.24 h; under setting [7], 9.65 ± 0.38 h; under setting [8], 5.5 ± 0.41 h; under setting [12], 10.2 ± 0.47 h; under setting [9], 5.84 ± 0.14 h; under setting [10], 12.63 ± 0.043 h.

As to “MKRVLIPGVILCGADVAQAVDDKNMYMHFFEEMTVYAPVPVPVNGNTHYTSESIERLPTGNGNISDLLRTNPAVRMDSTQSTSLNQGDIRPEKISIHGASPYQNAYLIDGISATNNLNPANESDASSATNISGMSQGYYLDVSLLDNVTLYDSFVPVEFGRFNGGVIDAKIKRFNADDSKVKLGYRTTRSDWLTSHIDENNKSAFNQGSSGSTYYSPDFKKNFYTLSFNQELADNFGVTAGLSRRQSDITRADYVSNDGIVAGRAQYKNVIDTALSKFTWFASDRFTHDLTLKYTGSSRDYNTSTFPQSDREMGNKSYGLAWDMDTQLAWAKLRTTVGWDHISDYTRHDHDIWYTELSCTYGDITGRCTRGGLGHISQAVDNYTFKTRLDWQKFAVGNVSHQPYFGAEYIYSDAWTERHNQSESYVINAAGKKTNHTIYHKGKGRLGIDNYTLYMADRISWRNVSLMPGVRYDYDNYLSNHNISPRFMTEWDIFANQTSMITAGYNRYYGGNILDMGLRDIRNSWTESVSGNKTLTRYQDLKTPYNDELAMGLQQKIGKNVIARANYVYREAHDQISKSSRTDSATKTTITEYNNDGKTKTHSFSLSFELAEPLHIRQVDINPQIVFSYIKSKGNLSLNNGYEESNTGDNQVVYNGNLVSYDSVPVADFNNPLKISLNMDFTHQPSGLVWANTLAWQEARKARIILGKTNAQYISEYSDYKQYVDEKLDSSLTWDTRLSWTPQFLQQQNLTISADILNVLDSKTAVDTTNTGVATYASGRTFWLDVSMKF”, the “total protein half-life in vivo” value is, setting by setting: under setting [11], 5.87 ± 0.22 h; under setting [1], 5.83 ± 0.27 h; under setting [2], more than 8 h; under setting [4], 5.751 ± 0.012 h; under setting [5], 3.16 ± 0.12 h; under setting [6], 6.17 ± 0.26 h. Also, the “total protein half-life in vivo” value by setting is: under setting [7], 9.31 ± 0.88 h; under setting [8], 6.68 h; under setting [12], 12.2 ± 1.3 h; under setting [9], 6.72 h; under setting [10], 14.44 ± 0.031 h.
